Here are results for five molecules from patent US20210269480A1 (published 2021).

*1 amine or outer side, *2 acyl side, *3 side chain or, on linkers, in order; H or OH if unused. Bridges are numbered along the chain shown (N, C = ends). Primed or numbered codes have the meaning given here. Where no end group is shown, it is not given here. [ ]: non-standard residue; d: D form. TATA = O=C(CC[*:1])N1CN(C(=O)CC[*:2])CN(C(=O)CC[*:3])C1; 1Nal = N[C@@H](Cc1cccc2ccccc12)C(=O)O; Glutaryl = O=C(CCCC(=O)[*:2])[*:1]; K(Fl) = lysine bearing fluorescein; Hyp = O=C(O)[C@@H]1C[C@@H](O)CN1; hArg = N=C(N)NCCCC[C@H](N)C(=O)O; Cit = NC(=O)NCCC[C@H](N)C(=O)O; MMAE = monomethyl auristatin E; PABC′ = p-aminobenzylcarbamate; βAla = NCCC(=O)O; Sar = CNCC(=O)O

For test [1], the target named is Nectin-4 on the surface of tumour cell lines (UniProt Q96NY8). Briefly: flow cytometry, PE antibody staining of NCI-H292 cells. (In general: A flow cytometer gives signals particle by particle.)
The target is the same in test [2]. The experiment in a line: flow cytometry, PE antibody staining of Panc02.13 cells.
The target is the same in test [3]. The experiment in a line: flow cytometry, PE antibody staining of MDA-MB-468 cells.
For test [4] the target is unchanged. Briefly: flow cytometry, PE antibody staining of A549 cells.
Test [5] shares this target. Briefly: flow cytometry, PE antibody staining of NCI-526 cells.
The target is the same in test [6]. Briefly: flow cytometry, PE antibody staining of HT1080 cells.
Test [7] has the same target. Briefly: flow cytometry, PE antibody staining of NCI-H358 cells.
The target is the same in test [8]. The experiment in a line: flow cytometry, PE antibody staining of NCI-H292 cells. The source holds these as a separate data set.
The target is the same in test [9]. Briefly: flow cytometry, PE antibody staining of HCT-116 cells.
Test [10] shares this target. The experiment in a line: flow cytometry, PE antibody staining of HT1376 cells.
Test [11] shares this target. The experiment in a line: flow cytometry, PE antibody staining of HT-29 cells.
The target is the same in test [12]. Briefly: flow cytometry, PE antibody staining of MDA-MB-468 cells. The source holds these as a separate data set.
Test [13] shares this target. The experiment in a line: flow cytometry, PE antibody staining of NCI-H526 cells.
The target is the same in test [14]. The experiment in a line: flow cytometry, PE antibody staining of T-47D cells.
The target is the same in test [15]. The experiment in a line: flow cytometry, PE antibody staining of NCI-H322 cells.
For test [16] the target is unchanged. Briefly: flow cytometry, PE isotype control on T-47D cells.
Test [17] has the same target. The experiment in a line: flow cytometry, PE isotype control on NCI-H292 cells.
The target is the same in test [18]. Briefly: flow cytometry, PE isotype control on NCI-H358 cells.
For test [19] the target is unchanged. Briefly: flow cytometry, PE isotype control on HT1376 cells.
Test [20] has the same target. Briefly: flow cytometry, PE isotype control on MDA-MB-468 cells.
The target is the same in test [21]. Briefly: flow cytometry, PE isotype control on HCT-116 cells.
Test [22] has the same target. Briefly: flow cytometry, PE isotype control on HT-29 cells.
Test [23] has the same target. Briefly: flow cytometry, PE isotype control on NCI-526 cells.
The target is the same in test [24]. The experiment in a line: flow cytometry, PE isotype control on NCI-H526 cells.
Test [25] has the same target. The experiment in a line: flow cytometry, PE isotype control on NCI-H292 cells. The source holds these as a separate data set.
For test [26] the target is unchanged. The experiment in a line: flow cytometry, PE isotype control on Panc02.13 cells.
The target is the same in test [27]. The experiment in a line: flow cytometry, PE isotype control on NCI-H322 cells.
For test [28] the target is unchanged. The experiment in a line: flow cytometry, PE isotype control on MDA-MB-468 cells. The source holds these as a separate data set.
For test [29] the target is unchanged. The experiment in a line: flow cytometry, PE isotype control on HT1080 cells.
Test [30] has the same target. Briefly: flow cytometry, PE isotype control on A549 cells.
The target of a further test is T1, human Nectin-4 (human, UniProt Q96NY8 32-349).
T1 construct: a Gly32-Ser349 FLAG construct is described only under the SPR assay; also called PVRL4
T1 sequence (looked up): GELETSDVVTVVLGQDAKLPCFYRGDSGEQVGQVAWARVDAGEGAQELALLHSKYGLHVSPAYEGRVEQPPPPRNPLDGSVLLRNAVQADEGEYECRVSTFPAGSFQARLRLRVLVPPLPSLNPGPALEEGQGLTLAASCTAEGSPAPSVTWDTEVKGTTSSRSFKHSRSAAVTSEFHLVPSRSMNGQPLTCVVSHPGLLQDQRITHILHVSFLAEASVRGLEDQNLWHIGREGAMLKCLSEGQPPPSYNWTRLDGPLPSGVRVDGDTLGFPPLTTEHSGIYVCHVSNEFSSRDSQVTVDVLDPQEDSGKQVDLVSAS
Briefly: FP direct binding. The method, then:
Affinity of the peptides of the invention for human Nectin-4 (Ki) was determined using a fluorescence polarisation assay, in accordance with the methods disclosed in WO 2016/067035. […] Measurements were conducted on a BMG PHERAstar FS equipped with an “FP 485 520 520” optic module which excites at 485 nm and detects parallel and perpendicular emission at 520 nm. The PHERAstar FS was set at 25° C. with 200 flashes per well and a positioning delay of 0.1 second, with each well measured at 5 to 10 minute intervals for 60 minutes. […] Data was analysed using Systat Sigmaplot version 12.0. mP values were fit to a user defined quadratic equation to generate a Kd value: f=ymin+(ymax−ymin)/Lig*((x+Lig+Kd)/2-sqrt((((x+Lig+Kd)/2)\hat{ }2)-(Lig*x))).

In test [31] the target is T2, Nectin-4 on MDA-MB-468 cells (human, UniProt Q96NY8 32-510).
T2 construct: whole, on cells; also called PVRL4; PVRL-4
T2 sequence (looked up): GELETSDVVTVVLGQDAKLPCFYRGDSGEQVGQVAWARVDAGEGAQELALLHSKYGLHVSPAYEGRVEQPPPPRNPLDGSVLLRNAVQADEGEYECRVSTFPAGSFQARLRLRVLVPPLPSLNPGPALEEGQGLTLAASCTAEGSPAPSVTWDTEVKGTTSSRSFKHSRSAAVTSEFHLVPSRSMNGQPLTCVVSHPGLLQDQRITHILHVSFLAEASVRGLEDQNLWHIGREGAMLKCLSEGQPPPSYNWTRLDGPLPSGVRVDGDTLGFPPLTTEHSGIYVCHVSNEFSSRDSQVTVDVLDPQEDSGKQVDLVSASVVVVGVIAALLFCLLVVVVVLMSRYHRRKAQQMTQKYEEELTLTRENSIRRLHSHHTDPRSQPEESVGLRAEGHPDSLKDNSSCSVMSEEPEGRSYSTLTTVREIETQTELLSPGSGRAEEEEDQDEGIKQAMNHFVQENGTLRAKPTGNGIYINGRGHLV
The experiment in a line: column 'Historical Kd (nM)' of the HCS table; method of the historical value not stated.

The target in test [32] is T2, Nectin-4 on MDA-MB-468 cells. Briefly: HCS assay on MDA-MB-468 cells, bound agent detected with fluorescent antibody to MMAE. The method, then: HCS assay was used in Nectin-4 BDC binding study. Cells were incubated with test agent and then washed. Detection was by a fluorescent antibody to MMAE.
Test [33] concerns the target T3, human Nectin-4 (human), Q96NY8.
T3 chain: T1 sequence (looked up)
The experiment in a line: FP competition, tracer SEQ ID NO 217. The following applies: remark: other sources report otherwise.

Take “PE anti-Nectin-4 antibody (R&D, catalog FAB2659P)”: the MFI-Panel was 149 in [1]; 128 in test [2]; 460 in test [3]; 21.6 in [4]; 12.1 in test [5]; 134 in [6]. Also, the MFI-Panel in [7] is 361; in [8], 729; in test [9], 15.6; in [10], 803; in test [11], 88.3; in [12], 2320. Moreover, the MFI-Panel in test [13] was determined as 91.3; in [14], 1810; in [15], 1660. Also, the Nectin-4 (percent positive cells) in test [1] stood at 71.1%; in [2], 51.9%; in [3], 97.1%; in [4], 1.07%; in test [5], 1.22%; in [6], 1.53%. For the same molecule, the Nectin-4 (percent positive cells) came out at 90.1% in [7]; 97.9% in test [8]; 1.85% in test [9]; 92.4% in test [10]; 40% in [11]; 99% in test [12]. For the same molecule, the Nectin-4 (percent positive cells) in test [13] was determined as 0.21%; in [14], 99%; in [15], 99.1%.
For “PE isotype control IgG2b (R&D, catalog IC0041P) (antibody)”, the MFI-Isotype amounted to 132 in test [16]; 22.9 in test [17]; 26.5 in [18]; 36.2 in [19]; 28.9 in [20]; 14.5 in test [21]. Besides, the MFI-Isotype was 20.5 in test [22]; 8.33 in test [23]; 104 in test [24]; 180 in test [25]; 36.2 in test [26]; 145 in [27]. For the same molecule, the MFI-Isotype in test [28] amounted to 184; in test [29] it was 134; in test [30] it was 20.5.
On to ACPFGCHTDWSWPIWCA[Sar][Sar][Sar][Sar][Sar][Sar]-{K(Fl)} (linker 2-6-16 via TATA, also called fluorescent peptide; tracer) [ACPFGCHTDWSWPIWCA-Sar6-K(Fl) (SEQ ID NO: 217)], for which the Kd (commonly the constant that tells how readily two partners part at equilibrium) with human Nectin-4 came out at 5 nM.
On to {MMAE-PABC′-Cit-Val-Glutaryl-βAla}-[Sar][Sar][Sar][Sar][Sar][Sar][Sar][Sar][Sar][Sar]CP[1Nal][dD]CM[hArg]DWSTP[Hyp]WC (linker 11-15-25 via TATA, also called BT8009) [BCY8245 (MMAE-PABC-Cit-Val-Glutaryl-BCY8234)], for which the results for the Kd in test [31] and in test [32] were 5.18 nM and 3.52 nM, respectively.
Take ACPFGCMKNWAWPIWCTNK (linker 2-6-16 via TATA) [BCY7424]: the Ki (usually a dissociation constant, usually derived from enzyme kinetics or from competition with a known ligand) in [33] was found to be 562 nM. That is a sub-micromolar value.
